T1: TNFSF18 (recombinant human protein) (human, UniProt Q9UNG2 52-177, limits assumed)
T1 construct: Recombinant human protein immobilized at 5 ug/mL for ELISA
T1 sequence (looked up): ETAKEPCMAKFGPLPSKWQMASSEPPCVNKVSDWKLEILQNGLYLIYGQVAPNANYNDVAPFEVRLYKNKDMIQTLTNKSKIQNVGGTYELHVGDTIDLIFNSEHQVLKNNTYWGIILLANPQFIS

T2: TNFRSF17 (recombinant human protein) (human, UniProt Q02223 1-54)
T2 construct: Recombinant human protein immobilized at 5 ug/mL for ELISA
T2 sequence (looked up): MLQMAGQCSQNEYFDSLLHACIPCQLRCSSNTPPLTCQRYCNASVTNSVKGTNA

T3: PROCR (human, UniProt Q9UNN8 18-210)
T3 construct: Recombinant human protein in ELISA and BLI
T3 sequence (looked up): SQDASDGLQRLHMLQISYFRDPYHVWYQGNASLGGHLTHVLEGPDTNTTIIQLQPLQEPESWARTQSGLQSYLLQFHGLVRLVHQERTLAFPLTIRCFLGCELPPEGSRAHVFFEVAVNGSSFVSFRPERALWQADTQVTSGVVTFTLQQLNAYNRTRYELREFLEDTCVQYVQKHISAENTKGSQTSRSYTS

T4: CD302 (human, UniProt Q8IX05 23-168, limits assumed)
T4 construct: Recombinant human protein in ELISA
T4 sequence (looked up): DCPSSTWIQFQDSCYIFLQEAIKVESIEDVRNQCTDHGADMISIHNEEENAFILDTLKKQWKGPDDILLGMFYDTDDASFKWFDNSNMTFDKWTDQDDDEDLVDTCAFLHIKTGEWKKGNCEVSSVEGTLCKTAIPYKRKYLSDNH

B1: TNFRSF17_Nb2.18 (Fc fusion)
chain: QVQLQESGGGLVQAGGSLRLSCAASGNIFRGWYMGWYRQAPGKEREFVATIASGGSTYYADSVKGRFTISRDNAKNTVYLQMNSLKPEDTAVYYCAVWDWEPGDYAYWGQGTQVTVSS
notes: Nanobody expressed as an Fc fusion protein (fused with human IgG1) in Expi293 cells; not shown: human IgG1 Fc; nanobodies expressed as Fc fusion from vector pCER243
B2: TNFRSF17_Nb2.19 (Fc fusion)
chain: QVQLQESGGGLVQAGGSLRLSCAASGTISHPTYMGWYRQAPGKEREFVAGISDGTNTYYADSVKGRFTISRDNAKNTVYLQMNSLKPEDTAVYYCAAITSWDYGYGYWGQGTQVTVSS
notes: as for B1
B3: TNFRSF17_Nb2.21 (Fc fusion)
chain: QVQLQESGGGLVQAGGSLRLSCAASGTIFQYDYMGWYRQAPGKEREFVAAIAYGGNTNYADSVKGRFTISRDNAKNTVYLQMNSLKPEDTAVYYCAAWSWRRSRAYWGQGTQVTVSS
notes: as for B1
B4: TNFRSF17_Nb2.23 (Fc fusion)
chain: QVQLQESGGGLVQAGGSLRLSCAASGYISRYDYMGWYRQAPGKERELVAAINSGASTYYADSVKGRFTISRDNAKNTVYLQMNSLKPEDTAVYYCAVRSWGLDDYAYWGQGTQVTVSS
notes: as for B1
B5: TNFSF18_Nb94 (Fc fusion)
chain: QVQLQESGGGLVQAGGSLRLSCAASGNISLYYDMGWYRQAPGKERELVAAIDPGTITYYADSVKGRFTISRDNAKNTVYLQMNSLKPEDTAVYYCAVVIPDYVYRYVVGTVDYGYWGQGTQVTVSS
notes: as for B1
B6: TNFSF18_Nb96 (Fc fusion)
chain: QVQLQESGGGLVQAGGSLRLSCAASGNISWVYWMGWYRQAPGKERELVAGIATGGSTNYADSVKGRFTISRDNAKNTVYLQMNSLKPEDTAVYYCAVVASNGSRFWYWGQGTQVTVSS
notes: as for B1
B7: TNFSF18_Nb93 (Fc fusion)
chain: QVQLQESGGGLVQAGGSLRLSCAASGNISDPPFMGWYRQAPGKERELVAGISWGASTYYADSVKGRFTISRDNAKNTVYLQMNSLKPEDTAVYYCAAVTTDFGAYPFAYWGQGTQVTVSS
notes: as for B1
B8: TNFSF18_Nb101 (Fc fusion)
chain: QVQLQESGGGLVQAGGSLRLSCAASGYIFDDYGMGWYRQAPGKERELVATINAGANTNYADSVKGRFTISRDNAKNTVYLQMNSLKPEDTAVYYCAVYYGPYYRYLDPYLYWGQGTQVTVSS
notes: as for B1
B9: TNFRSF17_Nb2.20 (Fc fusion)
chain: QVQLQESGGGLVQAGGSLRLSCAASGTIFSDYMGWYRQAPGKEREFVATIAVGSITYYADSVKGRFTISRDNAKNTVYLQMNSLKPEDTAVYYCAVWDASWADYAYWGQGTQVTVSS
notes: as for B1
B10: CD3E_Nb2.79 (Fc fusion)
chain: QVQLQESGGGLVQAGGSLRLSCAASGTISPWRVMGWYRQAPGKEREFVAGITPGTTTYYADSVKGRFTISRDNAKNTVYLQMNSLKPEDTAVYYCAVSAGASTPARYRLVYWGQGTQVTVSS
notes: Nanobody expressed and tested as Fc fusion (human IgG1); not shown: human IgG1 Fc (vector pCER243)
B11: CD3E_Nb2.74 (Fc fusion)
chain: QVQLQESGGGLVQAGGSLRLSCAASGTIFYASVMGWYRQAPGKEREFVAGITPGGSTNYADSVKGRFTISRDNAKNTVYLQMNSLKPEDTAVYYCAVYYRYSEGRIGGHAYWGQGTQVTVSS
notes: as for B10
B12: CD3E_Nb2.80 (Fc fusion)
chain: QVQLQESGGGLVQAGGSLRLSCAASGNISRRYVMGWYRQAPGKEREFVAGISGGSSTYYADSVKGRFTISRDNAKNTVYLQMNSLKPEDTAVYYCAVLISGNTPNAISHYYWGQGTQVTVSS
notes: as for B10
B13: CD3E_Nb2.77 (Fc fusion)
chain: QVQLQESGGGLVQAGGSLRLSCAASGSISPVAVMGWYRQAPGKEREFVAAINYGANTYYADSVKGRFTISRDNAKNTVYLQMNSLKPEDTAVYYCAAATYAPYQRSGKLVYWGQGTQVTVSS
notes: as for B10
B14: CD3E_Nb2.73 (Fc fusion)
chain: QVQLQESGGGLVQAGGSLRLSCAASGNISDITVMGWYRQAPGKEREFVAGINYGGSTNYADSVKGRFTISRDNAKNTVYLQMNSLKPEDTAVYYCAARYRYRYSAREFHDYWGQGTQVTVSS
notes: as for B10
B15: CD3E_Nb2.76 (Fc fusion)
chain: QVQLQESGGGLVQAGGSLRLSCAASGNIFGNVVMGWYRQAPGKEREFVAGINNGGSTNYADSVKGRFTISRDNAKNTVYLQMNSLKPEDTAVYYCAVYYYYLTYHLYWGQGTQVTVSS
notes: as for B10
B16: PROCR_Nb83 (Fc fusion)
chain: QVQLQESGGGLVQAGGSLRLSCAASGNISPTRFMGWYRQAPGKEREFVAAIDLGTTTNYADSVKGRFTISRDNAKNTVYLQMNSLKPEDTAVYYCAADWNGPWSFWYWGQGTQVTVSS
notes: as for B10
B17: PROCR_Nb90 (Fc fusion)
chain: QVQLQESGGGLVQAGGSLRLSCAASGTISGGYNMGWYRQAPGKEREFVATIGDGSSTYYADSVKGRFTISRDNAKNTVYLQMNSLKPEDTAVYYCAAFNSAQYWYESPFRYWGQGTQVTVSS
notes: as for B10
B18: PROCR_Nb85 (Fc fusion)
chain: QVQLQESGGGLVQAGGSLRLSCAASGNISVLVYMGWYRQAPGKERELVAAITTGTSTYYADSVKGRFTISRDNAKNTVYLQMNSLKPEDTAVYYCAADYYGPWYHQYWGQGTQVTVSS
notes: as for B10
B19: PROCR_Nb89 (Fc fusion)
chain: QVQLQESGGGLVQAGGSLRLSCAASGTIFRDDNMGWYRQAPGKEREFVAAIGYGSTTNYADSVKGRFTISRDNAKNTVYLQMNSLKPEDTAVYYCAVRNTYWNLLQYWGQGTQVTVSS
notes: as for B10
B20: CD302_Nb28 (Fc fusion)
chain: QVQLQESGGGLVQAGGSLRLSCAASGSISGVSGMGWYRQAPGKEREFVAGITTGTSTYYADSVKGRFTISRDNAKNTVYLQMNSLKPEDTAVYYCAAYANYVPSSRLYLRYWGQGTQVTVSS
notes: as for B10
B21: CD302_Nb32 (Fc fusion)
chain: QVQLQESGGGLVQAGGSLRLSCAASGTIFPDSSMGWYRQAPGKEREFVAGITTGANTYYADSVKGRFTISRDNAKNTVYLQMNSLKPEDTAVYYCAAYHVDRAVFRYWGQGTQVTVSS
notes: as for B10
B22: CD302_Nb35 (Fc fusion)
chain: QVQLQESGGGLVQAGGSLRLSCAASGTISRVFVMGWYRQAPGKERELVAGIGGGTSTYYADSVKGRFTISRDNAKNTVYLQMNSLKPEDTAVYYCAAILSDRVLFRYWGQGTQVTVSS
notes: as for B10
B23: CD302_Nb33 (Fc fusion)
chain: QVQLQESGGGLVQAGGSLRLSCAASGTISIIFAMGWYRQAPGKEREFVAGIGRGTTTYYADSVKGRFTISRDNAKNTVYLQMNSLKPEDTAVYYCAAHVFYDNVVQRHAYWGQGTQVTVSS
notes: as for B10
B24: CD302_Nb31 (Fc fusion)
chain: QVQLQESGGGLVQAGGSLRLSCAASGTIFKSAGMGWYRQAPGKEREFVAGIAPGAITYYADSVKGRFTISRDNAKNTVYLQMNSLKPEDTAVYYCAALVADGRPYRYWGQGTQVTVSS
notes: as for B10
B25: CD302_Nb30 (Fc fusion)
chain: QVQLQESGGGLVQAGGSLRLSCAASGSISLATGMGWYRQAPGKEREFVAGISVGTSTYYADSVKGRFTISRDNAKNTVYLQMNSLKPEDTAVYYCAAIAWHPSGARSYLRYWGQGTQVTVSS
notes: as for B10
B26: CD302_Nb26 (Fc fusion)
chain: QVQLQESGGGLVQAGGSLRLSCAASGNISFIGAMGWYRQAPGKEREFVAGINVGTNTYYADSVKGRFTISRDNAKNTVYLQMNSLKPEDTAVYYCAAYVFVSRIDLRYLVYWGQGTQVTVSS
notes: as for B10

What follows are binders tested against REAP Off-Targets (assay: REAP, nanobody-Fc on yeast-displayed human antigen library).

REAP Off-Targets (number) [off-targets]	Binder
1	B1
3	B2
5	B3
2	B4
1	B5
6	B6

What follows are binders tested against T1, TNFSF18 (recombinant human protein) (assay: ELISA, recombinant human protein coated, nanobody-Fc titrated, anti-human IgG HRP).
Protocol: (§1) Recombinant human protein was diluted in PBS to a final concentration of 5 μg/mL and was immobilized on 96-well flat bottom MaxiSorp plates (Thermo Fisher Scientific) and placed at 4° C. overnight. Plates were washed three times with 225 μL ELISA wash buffer (PBS with 0.05% Tween 20) and 200 μL ELISA blocking buffer (PBS with 1% Casein) was added to the well. Plates were incubated with shaking for 2 hours at room temperature. ELISA blocking buffer was removed from the wells and appropriate dilutions of recombinant nanobodies in 100 μL ELISA blocking buffer was added to each well. Plates were incubated with shaking for 2 hours at room temperature. Plates were washed 3 times with 225 μL ELISA wash buffer and 1:5000 goat anti-human IgG HRP (Millipore Sigma) in 100 μL ELISA blocking buffer was added to the wells. Plates were incubated with shaking for 1 hour at room temperature. Plates were washed 6 times with 225 μL ELISA wash buffer. 50 μL TMB substrate (BD Biosciences) was added to the wells and plates were incubated for 15 minutes in the dark at room temperature. 50 μL 1 M sulfuric acid was added to the wells and absorbance at 450 nm was measured in a Synergy HTX Multi-Mode Microplate Reader (BioTek).

EC50 [nM]	Binder
1.59	B7
22.6	B8
71.8	B5
4.07	B6

Each binder was assayed against T2, TNFRSF17 (recombinant human protein) in the same assay as above.
Protocol: as §1

EC50 [nM]	Binder
2.82	B1
1.02	B9
2.84	B2
4.75	B3
7.57	B4

Each binder was assayed against T5, CD3E (human, UniProt P07766 23-126) (assay: ELISA, plate-coated recombinant human protein, nanobody-Fc).
T5 construct: Recombinant human protein in ELISA
Protocol: as §1

T5 sequence (P07766 23-126 limits assumed): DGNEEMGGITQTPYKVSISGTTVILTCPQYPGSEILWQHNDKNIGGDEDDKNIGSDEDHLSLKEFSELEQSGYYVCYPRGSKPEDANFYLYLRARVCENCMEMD

EC50 [nM]	Binder
0.579	B10
1.2	B11
17.9	B12
0.67	B13
0.735	B14
16.1	B15

What follows are binders tested against T3, PROCR in the same assay as above.
Protocol: as §1

EC50 [nM]	Binder
1.27	B16
1.74	B17
0.352	B18
0.565	B19

The binders below were run against T4, CD302 in the same assay as above.
Protocol: as §1

EC50 [nM]	Binder
0.684	B20
0.49	B21
0.654	B22
2.26	B23
1.26	B24
2.21	B25
8.5	B26

Source: patent US20230416942A1 (YALE UNIVERSITY, published 2023)
